T1: inactive BoNT/G (BoNT/Gi) (Clostridium botulinum, UniProt Q60393 1-1297)
T1 sequence: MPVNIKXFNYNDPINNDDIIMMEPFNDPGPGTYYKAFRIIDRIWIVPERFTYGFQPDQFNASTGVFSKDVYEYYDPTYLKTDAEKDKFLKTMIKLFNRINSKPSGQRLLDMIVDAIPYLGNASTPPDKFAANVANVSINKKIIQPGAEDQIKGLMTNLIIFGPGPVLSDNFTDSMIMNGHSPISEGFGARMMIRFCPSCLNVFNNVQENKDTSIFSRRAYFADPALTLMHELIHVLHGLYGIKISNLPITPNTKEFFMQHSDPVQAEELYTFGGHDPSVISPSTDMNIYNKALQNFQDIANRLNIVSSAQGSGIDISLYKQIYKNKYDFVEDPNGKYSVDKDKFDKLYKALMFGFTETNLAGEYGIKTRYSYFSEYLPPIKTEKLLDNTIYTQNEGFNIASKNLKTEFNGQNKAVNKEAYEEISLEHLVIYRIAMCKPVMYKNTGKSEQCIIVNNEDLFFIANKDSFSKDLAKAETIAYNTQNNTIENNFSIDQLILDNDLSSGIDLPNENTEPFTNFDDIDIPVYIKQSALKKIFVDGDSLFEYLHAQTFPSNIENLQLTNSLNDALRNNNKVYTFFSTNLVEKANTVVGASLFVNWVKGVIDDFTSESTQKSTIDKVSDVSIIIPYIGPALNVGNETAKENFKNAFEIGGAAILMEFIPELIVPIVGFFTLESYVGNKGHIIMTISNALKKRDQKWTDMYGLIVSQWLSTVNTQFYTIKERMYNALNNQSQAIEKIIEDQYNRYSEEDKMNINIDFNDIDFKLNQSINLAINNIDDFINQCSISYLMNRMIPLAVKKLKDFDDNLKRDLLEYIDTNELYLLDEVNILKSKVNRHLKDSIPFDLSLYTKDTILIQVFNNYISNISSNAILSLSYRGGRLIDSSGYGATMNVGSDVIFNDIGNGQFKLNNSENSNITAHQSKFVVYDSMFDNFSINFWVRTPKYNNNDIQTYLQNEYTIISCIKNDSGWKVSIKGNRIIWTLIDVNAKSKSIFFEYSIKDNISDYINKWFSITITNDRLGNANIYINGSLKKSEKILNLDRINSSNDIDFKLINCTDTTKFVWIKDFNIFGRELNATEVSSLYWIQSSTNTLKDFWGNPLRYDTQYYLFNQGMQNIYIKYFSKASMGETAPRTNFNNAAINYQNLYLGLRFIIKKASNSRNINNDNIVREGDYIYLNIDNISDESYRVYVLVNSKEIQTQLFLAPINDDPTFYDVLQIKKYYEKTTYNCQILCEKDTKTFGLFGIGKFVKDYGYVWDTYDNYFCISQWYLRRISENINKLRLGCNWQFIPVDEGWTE

T2: active BoNT/G holotoxin (Clostridium botulinum, UniProt Q60393 2-1297)
T2 sequence: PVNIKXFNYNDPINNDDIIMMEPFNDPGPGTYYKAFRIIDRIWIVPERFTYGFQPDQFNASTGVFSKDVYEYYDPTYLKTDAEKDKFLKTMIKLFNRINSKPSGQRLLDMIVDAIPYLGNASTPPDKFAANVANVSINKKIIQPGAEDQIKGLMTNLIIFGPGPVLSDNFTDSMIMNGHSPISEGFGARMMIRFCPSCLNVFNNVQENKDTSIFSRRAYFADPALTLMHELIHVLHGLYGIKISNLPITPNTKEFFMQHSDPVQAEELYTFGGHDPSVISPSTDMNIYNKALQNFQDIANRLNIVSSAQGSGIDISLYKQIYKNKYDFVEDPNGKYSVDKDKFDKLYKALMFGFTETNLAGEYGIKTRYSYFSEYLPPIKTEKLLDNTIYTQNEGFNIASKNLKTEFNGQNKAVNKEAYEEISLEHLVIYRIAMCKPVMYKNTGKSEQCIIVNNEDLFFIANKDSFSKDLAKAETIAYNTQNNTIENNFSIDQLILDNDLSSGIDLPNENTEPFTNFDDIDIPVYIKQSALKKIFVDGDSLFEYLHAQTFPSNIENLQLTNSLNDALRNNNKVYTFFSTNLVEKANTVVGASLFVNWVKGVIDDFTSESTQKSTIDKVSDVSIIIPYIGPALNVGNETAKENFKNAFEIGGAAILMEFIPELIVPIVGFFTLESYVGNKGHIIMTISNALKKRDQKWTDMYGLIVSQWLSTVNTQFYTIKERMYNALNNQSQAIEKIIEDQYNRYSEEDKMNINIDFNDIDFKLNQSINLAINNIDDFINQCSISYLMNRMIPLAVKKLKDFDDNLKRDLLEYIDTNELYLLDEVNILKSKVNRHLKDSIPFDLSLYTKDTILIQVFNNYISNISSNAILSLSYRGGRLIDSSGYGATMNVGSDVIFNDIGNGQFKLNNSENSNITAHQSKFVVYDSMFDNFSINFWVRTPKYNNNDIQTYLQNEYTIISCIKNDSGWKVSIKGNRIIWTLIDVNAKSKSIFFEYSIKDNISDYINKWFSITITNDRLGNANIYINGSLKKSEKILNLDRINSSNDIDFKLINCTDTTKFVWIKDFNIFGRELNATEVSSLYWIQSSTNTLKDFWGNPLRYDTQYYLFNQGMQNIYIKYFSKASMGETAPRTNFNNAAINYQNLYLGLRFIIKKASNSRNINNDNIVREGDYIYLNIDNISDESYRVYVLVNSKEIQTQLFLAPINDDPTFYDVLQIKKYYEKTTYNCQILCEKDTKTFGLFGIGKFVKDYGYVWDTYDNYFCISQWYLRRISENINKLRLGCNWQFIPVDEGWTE

B1: 6G7.1 scFv (scFv, V domains shown)
VH: DVQLQESGPELVKPGASVKVSCKASDYSFTDYNIYWVKQSHGKSLEWIGYIDPYNGGTSYNQKFKGKATLTVDKSSSTAFMYLNSLTSEDSAVYYCALYGYDPDYIDYWGQGTTLTVSS
VL: QIVLTQSPAIMSASPGEKVTITCSASSSVSYLHWFQQKPGTSPKLWIYSTSNLASGVPARFSGSGSGTSYSLTISRMEAEDAATYYCQQRSSYPYTFGGGTKLEIKA
B2: Hu6G7.2 IgG (antibody, V domains shown)
VH: QVQLVQSGAEVKKPGASVKVSCKASDYSFTDYNIYWVRQTPGQGLEWIGYIDPYNGGTSYNQKFKGRATLTVDKSISTAYMELSRLRSDDTAVYYCALYGYDPDYTEYWGQGTTLTVSS
VL: DIVLTQSPASMAVSPGQRVTITCSASSSVSYLHWFQQKPGQSPKLWIYSTSNLASGVPARFSGSGSGTDYTLTINPMEAEDTATYYCQQRSSYPYTFGQGTKLEIKR

Experiments:
[1] = molecular target: T1, inactive BoNT/G (BoNT/Gi); assay: scFv on yeast surface
[2] = molecular target: T1, inactive BoNT/G (BoNT/Gi); assay: FACS, scFv on yeast
[3] = molecular target: T1, inactive BoNT/G (BoNT/Gi); assay: flow cytometry, scFv on yeast
[4] = molecular target: T1, inactive BoNT/G (BoNT/Gi); assay: titration on yeast-displayed scFv, flow cytometry, fit y = m1 + m2*M0/(m0+m3)
[5] = molecular target: T1, inactive BoNT/G (BoNT/Gi); assay: as above; remark: listed apart in the source
active BoNT/G holotoxin [6] = molecular target: T2, active BoNT/G holotoxin; assay: KinExA, IgG
active BoNT/G holotoxin [7] = molecular target: T2, active BoNT/G holotoxin; assay: KinExA, IgG; 'affinity to the active BoNT/G holotoxin'

Binder | Kd [1] | Kd [2] | Kd [3] | Kd [4] | Kd [5] | Kd (active BoNT/G holotoxin [6]) | Kd (active BoNT/G holotoxin [7])
B1 | 0.69 nM | 0.27 nM | 2.1 nM | 1.29 nM | 0.27 nM | – | –
B2 | – | – | – | – | – | 0.051 nM | 0.051 nM
